From patent US20090075925A1 (published 2009)

B1: ACF of nuclear extract treated with calf intestinal alkaline phosphatase (CIAP) (other, rat, UniProt Q923K9-2 1-586, looked up)
chain: MESNHKSGDGLSGTQKEAALRALVQRTGYSLVQENGQRKYGGPPPGWDTTPPERGCEIFIGKLPRDLFEDELIPLCEKIGKIYEMRMMMDFNGNNRGYAFVTFSNKQEAKNAIKQLNNYEIRNGRLLGVCASVDNCRLFVGGIPKTKKREEILSEMKKVTEGVVDVIVYPSAADKTKNRGFAFVEYESHRAAAMARRRLLPGRIQLWGHPIAVDWAEPEVEVDEDTMSSVKILYVRNLMLSTSEEMIEKEFNSIKPGAVERVKKIRDYAFVHFSNREDAVEAMKALNGKVLDGSPIEVTLAKPVDKDSYVRYTRGTGGRNTMLQEYTYPLSHVYDPTTTYLGAPVFYTPQAYAAIPSLHFPATKGHLSNRALIRTPSVRGAAGVRGLGGRGYLAYTGLGRGYQVKGDKRQDKLYDLLPGMELTPMNTISLKPQGVKLAPQILEEICQKNNWGQPVYQLHSAIGQDQRQLFLYKVTIPALASQNPAIHPFTPPKLSAYVDEAKRYAAEHTLQTLGIPTEGGDAGTTAPTATSATVFPGYAVPSATAPVSTAQLKQAVTLGQDLAAYTTYEVYPTFAVTTRGDGYGTF
modifications: phosphates removed by CIAP treatment of the extract

Columns and labels:
[1] = target: T1, rat APOBEC-1 (endogenous, rat liver nuclear extract and McArdle cells) (rat); assay: cell-based or functional assay
T1 sequence (P38483 1-229, looked up): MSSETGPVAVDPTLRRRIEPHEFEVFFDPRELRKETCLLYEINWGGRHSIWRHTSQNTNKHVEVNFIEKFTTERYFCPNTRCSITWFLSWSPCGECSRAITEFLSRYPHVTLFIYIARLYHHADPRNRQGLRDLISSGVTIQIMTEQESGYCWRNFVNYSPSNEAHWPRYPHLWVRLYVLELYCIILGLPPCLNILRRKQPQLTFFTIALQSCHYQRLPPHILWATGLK

[2] = target: B1; assay: co-immunoprecipitation with ACF CT antibody from CIAP-treated McArdle nuclear extract, anti-HA western blot, densitometry (FIG. 2A)

B1
fold decrease in in vitro ApoB mRNA editing activity of CIAP-treated nuclear extract (poisoned-primer extension) [1]: 2.5 fold

B2: HA epitope-tagged APOBEC-1 stably expressed in McArdle RH7777 cells (enzyme, UniProt P38483 1-229, looked up, not shown: small tags and cut ends)
chain: MSSETGPVAVDPTLRRRIEPHEFEVFFDPRELRKETCLLYEINWGGRHSIWRHTSQNTNKHVEVNFIEKFTTERYFCPNTRCSITWFLSWSPCGECSRAITEFLSRYPHVTLFIYIARLYHHADPRNRQGLRDLISSGVTIQIMTEQESGYCWRNFVNYSPSNEAHWPRYPHLWVRLYVLELYCIILGLPPCLNILRRKQPQLTFFTIALQSCHYQRLPPHILWATGLK
notes: also called HA-tagged APOBEC-1
fold reduction of APOBEC-1 recovered with immunoprecipitated ACF (CIAP-treated against control nuclear extract) [2]: 3 fold
